These results are taken from paper PMC5828221.

The target in the experiment is purified recombinant histone H3 protein (Active Motif C110A), PARylated in vitro by PARP1 (UniProt P68431).

Take “human EZH2/EED/SUZ12/RbAp48/AEBP2 Complex (from UniProt Q15910 1-746; O75530 1-441; Q15022 1-739; Q09028 1-425; Q6ZN18 1-517)”: the decrease in H3K27me3 ELISA after in vitro methylation by the EZH2/PRC2 complex of PARylated against unmodified recombinant histone H3 (PARP1 removed beforehand) stood at 30%.
